Data from patent US7151087.

Substrate: CC chemokine receptor 5 (CCR5), clone 8.5 cDNA, stably expressed on HEK 293 cells (human), P51681
Assay: homologous competition against ^125I-RANTES on CCR5.1 cells, 37° C.
Conditions: remark: other sources report otherwise

Chain of CC chemokine receptor 5 (CCR5), clone 8.5 cDNA, stably expressed on HEK 293 cells (human), P51681 (P51681 whole entry): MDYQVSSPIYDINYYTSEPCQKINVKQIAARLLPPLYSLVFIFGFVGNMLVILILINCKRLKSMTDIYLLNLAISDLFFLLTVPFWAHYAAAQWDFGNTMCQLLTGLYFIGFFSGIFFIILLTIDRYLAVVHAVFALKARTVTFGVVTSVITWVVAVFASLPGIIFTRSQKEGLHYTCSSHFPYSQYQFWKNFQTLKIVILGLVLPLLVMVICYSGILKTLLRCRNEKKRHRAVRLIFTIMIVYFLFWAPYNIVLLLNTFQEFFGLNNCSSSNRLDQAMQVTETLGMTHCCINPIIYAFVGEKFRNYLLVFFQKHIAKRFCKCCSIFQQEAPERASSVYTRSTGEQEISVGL

IC50: 80 nM
B1: RANTES, P13501 24-91 (ligand, human, UniProt P13501 24-91, looked up)
chain: SPYSSDTTPCCFAYIARPLPRAHIKEYFYTSGKCSNPAVVFVTRKNRQVCANPEKKWVREYINSLEMS
